According to patent US10632208B2, “Peptide-mediated drug delivery across epithelial barrier” (Purdue Research Foundation, priority 2017, dated 2020):

How the values were obtained:
NF-κB(p65) [1] = assay: Confocal immunofluorescence of p65 localization in Caco-2 cells; assay type: cell-based, human; conditions: 30 min
Method: For antibody labeling in cells, Caco-2 cells, were grown to 40-50% confluence in four-chambered slides (Millipore). At the end of the treatment, the cells were fixed with 3.7% formaldehyde in PBS for 20 min and permeabilized and blocked with PBS containing 0.3% Triton X-100 and 3% BSA (Sigma-Aldrich) for 1 h at room temperature and then incubated with respective antibodies overnight at 4° C. Following antibody incubation, the cells were washed with PBS (3 cycles, 5 min) and incubated with FITC or Alexa Fluor 555-conjugated secondary antibody for 2 h at room temperature. The nuclei were stained with DAPI (500 ng/ml; Cell signaling) and slides were mounted in ProLong antifade reagent (Cell Signaling).
All images were acquired using a Nikon A1R MP Multiphoton (Nikon) Confocal fluorescence microscope using a 60× oil immersion objective equipped with the Nikon Elements software (Nikon) at the Purdue Bioscience Imaging Facility. The X-Z and Y-Z cross-sections were produced by orthogonal reconstructions from z-stack scanning at 0.15 μm intervals taken with 60× objective in 5 μm thick paraffin embedded tissue section. Three-dimensional reconstructions were performed using Nikon elements software (Nikon).

NF-κB(p65) [2] = assay: Immunoblot of NF-κB activation in Caco-2 cytoplasmic and nuclear extracts; assay type: cell-based, human; conditions: LAP 1000 ng/mL or TNF-α 10 ng/mL
Method: To extract the proteins from Caco-2 cells, cells were seeded in 6-well plates for 14-21 days. Following treatment, the cells were washed, scraped from the bottom of 6-well plates, suspended in PBS, and pelleted by centrifugation. Total protein from Caco-2 cells was extracted using the M-PER Extraction Kit (Thermo Fisher Scientific). Detergent-insoluble (membrane) and detergent-soluble (cytosolic) proteins were isolated using a Mem-Per Eukaryotic Protein Extraction Kit (Thermo Fisher Scientific) while the cytosolic and nuclear proteins were extracted using NE-PER Extraction Reagent (Thermo Fisher Scientific). To extract proteins from ileal epithelial cells, the epithelial cell fraction from ileal tissues were isolated as described above and the detergent-insoluble and the detergent-soluble proteins were isolated using a Mem-Per Eukaryotic Protein Extraction Kit.
To extract total protein from intact bacterial cells, sample solvent buffer and sonication (3 cycles of […]) were used. To isolate the cell wall-associated proteins bacterial pellets were resuspended in 0.5 ml protein extraction buffer (0.5% SDS, 10 mM Tris at pH 6.9), and incubated at 37° C. for 30 min with agitation. The samples were centrifuged (14,000×g, 10 min, 4° C.), and the supernatants (containing cell wall-associated proteins) were retained. Halt proteases and phosphatase inhibitors (Thermo Fisher Scientific) were used during all of the protein extraction procedures. The protein concentrations were determined by BCA assay (Thermo Fisher Scientific), and separated on SDS-PAGE gels (10-12.5% polyacrylamide) and electro-transferred to polyvinylidene difluoride (PVDF) membrane (Millipore). The membranes were then blocked in 5% nonfat dry milk (NFDM) in 0.1 M Tris-buffered saline, pH 7.5 (TBS) containing 0.1% Tween 20 (TBST) for at least 1 h. All of the primary antibodies were diluted in 5% bovine serum albumin (BSA) or 5% NFDM in TBST and incubated overnight. Secondary antibodies (1:2000 in 5% NFDM in TBST) incubated for 1 h at 37° C., and a chemiluminescence method was performed using LumiGLO reagent (Cell Signaling). The membranes were exposed to X-ray films or visualized using the Chemi-Doc XRS system (Bio-Rad). To immunoprobe the same membrane with another antibody, the originally bound antibodies from the membranes were removed by incubating the membranes in Restore Western Blot Stripping Buffer (Thermo Fisher Scientific) according to the manufacturer's protocol. To compare the reaction intensities, the average band densities were determined using Quantity One software (Bio-Rad). Densitometry reports represent the mean±SEM after normalization to the loading control and is presented as % change of protein with the average for untreated cells (control) set at 100%. Immunoblots and densitometric reports are representative of 2-3 independent experiments.

NF-κB = NF-κB luciferase reporter assay in RAW 264.7 cells; assay type: cell-based, murine; conditions: for NF-κB activation: purified proteins, LPS positive control; for NF-κB activation by LAP domains (luciferase activity): 1 μg/mL each, 6 h
Method: The NF-κB Luciferase reporter RAW 264.7 cell line (Novus Biologicals), which expresses an optimized Renilla luciferase reporter gene (RenSP) under the transcriptional control of an NF-κB response element, was used. The cells were seeded (1×10^5 cells/well) into 96-well luminometer-compatible plates for 16 h and then treated with analytes for 6 h. Media from each well were aspirated, and then 100 μL of ice-cold PBS was added to each well. The plates were then frozen solid at −80° C. overnight to completely lyse the cells, thawed back to room temperature, and luciferase assays were performed using the LightSwitch Luciferase assay kit (Novus Biologicals). Luminescence was measured as the relative luminescence units (RLU) using Spectramax (Spectramax, Molecular Devices) and reported as the relative fold change compared with that of the control cells that were treated with media alone. Recombinant human or mouse TNF-α (R&D Systems) and polymyxin B, LPS (E. coli Serotype R515, Re, TLR grade), and proteinase K (each from Sigma-Aldrich) were used.

TNF-α [reference compound]
localization of p65 (NF-κB(p65) [1]; Caco-2 cells, LAP 1 μg/mL or TNF-α 10 ng/mL): in the nucleus | localization of p65 (NF-κB(p65) [1]; Hsp60 knocked-down Caco-2 cells): slight reduction in the nuclear translocation of p65 | time of appearance of cytoplasmic phospho-IκBα (Ser32) (NF-κB(p65) [2]): 15 min | time of increase in nuclear p65 and P-p65 (NF-κB(p65) [2]): 30 min

B1: InlB: purified recombinant InlB protein of Listeria (protein, UniProt P0DQD2 31-630, looked up)
Internalin B: AKVQAETITVPTPIKQIFSDDAFAETIKDNLKKKSVTDAVTQNELNSIDQIIANNSDIKSVQGIQYLPNVTKLFLNGNKLTDIKPLANLKNLGWLFLDENKVKDLSSLKDLKKLKSLSLEHNGISDINGLVHLPQLESLYLGNNKITDITVLSRLTKLDTLSLEDNQISDIVPLAGLTKLQNLYLSKNHISDLRALAGLKNLDVLELFSQECLNKPINHQSNLVVPNTVKNTDGSLVTPEIISDDGDYEKPNVKWHLPEFTNEVSFIFYQPVTIGKAKARFHGRVTQPLKEVYTVSYDVDGTVIKTKVEAGTRITAPKPPTKQGYVFKGWYTEKNGGHEWNFNTDYMSGNDFTLYAVFKAETTEKAVNLTRYVKYIRGNAGIYKLPREDNSLKQGTLASHRCKALTVDREARNGGKLWYRLKNIGWTKAENLSLDRYDKMEYDKGVTAYARVRNASGNSVWTKPYNTAGAKHVNKLSVYQGKNMRILREAKTPITTWYQFSIGGKVIGWVDTRALNTFYKQSMEKPTRLTRYVSANKAGESYYKVPVADNPVKRGTLAKYKNQKLIVDCQATIEGQLWYRIRTSSTFIGWTKAANLRAQK
NF-κB activation ability after polymyxin-B treatment (NF-κB): retained the NF-κB activation ability | NF-κB activation after proteinase-K treatment (NF-κB): abolished | NF-κB activation ability after heat treatment (NF-κB; 100° C., 10 min): abolished the NF-κB activation ability | NF-κB activation (NF-κB): activated NF-κB

B2: InlA: purified recombinant InlA, Listeria surface protein Internalin A (protein)
chain: ATITQDTPINQIFTDTALAEKMKTVLGKTNVTDTVSQTDLDQVTTLQADRLGIKSIDGVEYLNNLTQINFSNNQLTDITPLKNLTKLVDILMNNNQIADITPLANLTNLTGLTLFNNQITDIDPLKNLTNLNRLELSSNTISDISALSGLTSLQQLSFGNQVTDLKPLANLTTLERLDISSNKVSDISVLAKLTNLESLIATNNQISDITPLGILTNLDELSLNGNQLKDIGTLASLTNLTDLDLANNQISNLAPLSGLTKLTELKLGANQISNISPLAGLTALTNLELNENQLEDISPISNLKNLTYLTLYFNNISDISPVSSLTKLQRLFFYNNKVSDVSSLANLTNINWLSAGHNQISDLTPLANLTRITQLGLNDQAWTNAPVNYKANVSIPNTVKNVTGALIAPATISDGGSYTEPDITWNLPSYTNEVSYTFSQPVTIGKGTTTFSGTVTQPLKAIFNVKFHVDGKETTKEVEAGNLLTEPAKPVKEGHTFVGWFDAQTGGTKWNFSTDKMPTNDINLYAQFSINSYTATFDNDGVTTSQTVDYQGLLQEPTAPTKEGYTFKGWYDAKTGGDKWDFATSKMPAKNITLYAQYSANSYTATFDVDGKSTTQAVDYQGLLKEPKAPTKAGYTFKGWYDEKTDGKKWDFATDKMPANDITLYAQFTKNPVAPPTTGGNTPPTTNNGGNTTPPSANIPGSDTSNTSTGNSASTTSTMNAYDPYNSKEASLPTT
NF-κB activation (NF-κB): neutral

B3: C1: LAP fragment C1 (Gly412-Val648); histidine-tagged form SEQ ID NO: 8 (protein)
chain: GGIGDIYNGFIPSLTLGCGSYGKNSVSQNVSATNLLNVKRIADRRNNMQWFKLPPKIFFEKYSTQYLQKMEGVERVFIVTDPGMGSFKYVDVVIEHLKKRGNDVAYQVFADVEPDPSDVTVYKGAELMKDFKPDTIIALGGGSAMDAAKGMWLFYEHPEASFFGLKQKFLDIRKRTFKYPKLGGKAKFVAIPTTSGTGSEVTPFAVITDKENNIKYPLADYELTPDVAIVDAQYVTTV
modifications: Listeria Adhesion Protein C1 domain
NF-κB activation by LAP domains (luciferase activity) (NF-κB): activity similar to the untreated control cells

B4: N1: LAP fragment N1 (Met1-Pro223); histidine-tagged form SEQ ID NO: 7 (protein)
chain: MAIKENAAQEVLEVQKVIDRLADNGQKALKAFESYNQEQVDNIVHAMALAGLDQHMPLAKLAVEETGRGLYEDKCIKNIFATEYIWNNIKNNKTVGVINEDVQTGVIEIAEPVGVVAGVTPVTNPTSTTLFKAIIAIKTRNPIIFAFHPSAQRCSSAAAKVVYDAAIAAGAPEHCIQWVEKPSLEATKQLMNHDKVALVLATGGAGMVKSAYSTGKPALGVGP
modifications: Listeria Adhesion Protein N1 domain
NF-κB activation by LAP domains (luciferase activity) (NF-κB): activity similar to the untreated control cells

B5: N2: LAP fragment N2 (Gly224-Gly411); histidine-tagged form SEQ ID NO: 3 (protein)
chain: GNVPAYIDKTAKIKRSVNDIILSKSFDQGMICASEQAVIVDKEVAKEVKAEMEANKCYFVKGAEFKKLESYVINPEKGTLNPDVVGKSPAWIANQAGFKVPEDTKILVAEIKGVGDKYPLSHEKLSPVLAFIEAANQAEAFDRCEEMLVYGGLGHSAVIHSTDKEVQKAFGIRMKACRIIVNAPSAQG
modifications: Listeria Adhesion Protein N2 domain
NF-κB activation by LAP domains (luciferase activity) (NF-κB): activated NF-κB nearly as effectively as the full-length LAP

B6: C2: LAP fragment C2 (Pro649-Val866); histidine-tagged form SEQ ID NO: 9 (protein)
chain: PAHITADTGMDVLTHAIESYVSVMASDYTRGLSIRAIELVFENLRESVLTGDPDAREKMHNASALAGMAFANAFLGINHSLAHKIGPEFHIPHGRANAILMPHVIRYNALKPKKHALFPRYESFRADEDYARISRIIGFPAATTEEGVKSLVDEIIKLGKDVGIDMSLKGQNVAKKDLDAVVDTLADRAFMDQCTTANPKQPLVSELKEIYLEAYKGV
modifications: Listeria Adhesion Protein C2 domain
NF-κB activation by LAP domains (luciferase activity) (NF-κB): activity similar to the untreated control cells
